We go through one compound from article PMC10705946, “^225Ac-iPSMA-RGD for Alpha-Therapy Dual Targeting of Stromal/Tumor Cell PSMA and Integrins” (International Journal of Molecular Sciences, 2023).

SMILES strings stand for the structures.

A short description of one data set: in vitro. The following applies: human, diluted human serum (1:5, v/v).
For the next data set, the system named is HCT116 cells. Description: Proliferation capability (clonogenic) assay. The following applies: 2 Gy and 4 Gy tested. Type of data set: cell-based, human. How it is done:
HCT116 cell line was used to evaluate the ability of a single cell to form colonies after exposure to ^225Ac-iPSMA-RGD treatment, in triplicate. We seeded 500 cells in each well (six-well plate) and treated them with 4.5 Bq/well (2 Gy), […] (4 Gy), and control (no treatment) for 1 h, dissolved in 2 mL of RPMI medium. After exposure, the treatments and medium were removed and replaced with fresh medium. The plates were incubated for 15 days. Surviving colonies were fixed for 10 min with 4% paraformaldehyde at room temperature and washed with type 1 water. Afterward, they were stained with 0.1% crystal violet for 30 min, washed with purified water, and dried. For quantification, 10% acetic acid was added for 5 min to extract the crystal violet and the absorbance was measured at 590 nm in a microplate absorbance reader (EpochTM; BioTek Instruments, Winooski, VT, USA). Statistical analysis was performed with two-way ANOVA followed by Tukey’s multiple comparisons test using GraphPad Prism 5.0 Software. Data are shown as mean ± SEM. A p < 0.05 was considered statistically significant.

Protocol for in vitro: After adding 200 μL of ^225Ac-iPSMA-RGD to the diluted human serum (1:5, v/v) in a vial (n = 3), the mixture was kept at 37 °C in a dry bath. At 0.5 h, 1 h, and 3 h intervals, 200 μL of each vial was removed and 1 mL of methanol: acetonitrile (1:1, v/v) was added to precipitate the proteins. The total activity was measured in a NaI(Tl) well-type detector by 218 keV gamma emission of Fr-221 and the solution was centrifuged at 3000 rpm for 5 min. The supernatant was then decanted and the pellet measured to determine ^225Ac binding proteins.

On to `N=C(N)NCCC[C@@H]1NC(=O)[C@H](CCCCNC(=O)CCCN2C(=O)CC(SC[C@H](NC(=O)c3ccc(NNC(=S)Nc4ccc(CC5CN(CC(=O)O)CCN(CC(=O)O)CCN(CC(=O)O)CCN(CC(=O)O)CCN(CC(=O)O)CCN5CC(=O)O)cc4)nc3)C(=O)N[C@@H](Cc3ccc4ccccc4c3)C(=O)NCCCC[C@H](NC(=O)N[C@@H](CCC(=O)O)C(=O)O)C(=O)O)C2=O)NC(=O)[C@@H](Cc2ccccc2)NC(=O)[C@H](CC(=O)O)NC(=O)CNC1=O` (some centres unmarked) [^225Ac-iPSMA-RGD, ^225Ac-HEHA-HYNIC-iPSMA-RGD, metal not drawn], for which the free fraction (fraction unbound) (in general, the share of the substance not bound to proteins or other matrix) at 3 h in the data set “in vitro” was 0.923. Further, in the data set on HCT116 cells, the “Reduction of proliferation capability” value amounted to 65%.
